Results taken from PMC5560055 (Journal of molecular biology, 2014).
Blank lines part the entries; values can stand above or below the molecule they belong to.

Columns and labels:
[1] = target: zip from GCN4 (T25-zip and T18-zip, positive control of the BACTH kit); test: two-hybrid
[2] = target: T1, N-terminally His-tagged PflB (E. coli, UniProt P09373 2-760); test: cross-linking
T1 sequence: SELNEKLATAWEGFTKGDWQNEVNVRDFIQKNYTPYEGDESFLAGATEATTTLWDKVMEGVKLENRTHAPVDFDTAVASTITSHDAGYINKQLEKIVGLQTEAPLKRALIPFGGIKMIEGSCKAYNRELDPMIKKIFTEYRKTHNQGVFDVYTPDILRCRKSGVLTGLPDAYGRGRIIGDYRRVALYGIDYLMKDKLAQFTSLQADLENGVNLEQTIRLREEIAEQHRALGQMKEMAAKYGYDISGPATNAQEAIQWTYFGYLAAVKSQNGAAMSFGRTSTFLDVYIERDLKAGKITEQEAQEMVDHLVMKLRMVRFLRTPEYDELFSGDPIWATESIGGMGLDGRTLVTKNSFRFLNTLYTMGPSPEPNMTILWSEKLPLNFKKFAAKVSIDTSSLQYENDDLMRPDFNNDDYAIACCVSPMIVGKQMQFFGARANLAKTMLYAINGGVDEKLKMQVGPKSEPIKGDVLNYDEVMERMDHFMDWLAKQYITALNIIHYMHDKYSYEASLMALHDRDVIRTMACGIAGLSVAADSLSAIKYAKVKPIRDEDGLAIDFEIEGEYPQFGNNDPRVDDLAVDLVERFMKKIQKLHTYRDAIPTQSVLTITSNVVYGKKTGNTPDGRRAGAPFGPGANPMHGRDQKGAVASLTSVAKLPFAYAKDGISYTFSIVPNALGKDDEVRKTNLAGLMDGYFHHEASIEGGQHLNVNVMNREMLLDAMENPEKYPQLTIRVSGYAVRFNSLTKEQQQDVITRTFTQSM

[3] = target: T1, N-terminally His-tagged PflB; test: pull-down

β-galactosidase activity [1]: 715 units
Molecule: zip from GCN4 (T25-zip and T18-zip, positive control of the BACTH kit) (domain or fragment)

binding result [2]: binds
B1: FocA, purified preparation used for BS2G cross-linking (natural protein, E. coli)
chain: MKADNPFDLLLPAAMAKVAEEAGVYKATKHPLKTFYLAITAGVFISIAFVFYITATTGTGTMPFGMAKLVGGICFSLGLILCVVCGADLFTSTVLIVVAKASGRITWGQLAKNWLNVYFGNLVGALLFVLLMWLSGEYMTANGQWGLNVLQTADHKVHHTFIEAVCLGILANLMVCLAVWMSYSGRSLMDKAFIMVLPVAMFVASGFEHSIANMFMIPMGIVIRDFASPEFWTAVGSAPENFSHLTVMNFITDNLIPVTIGNIIGGGLLVGLTYWVIYLRENDHH

B2: N-terminally Strep-tagged FocA (formate channel A) (natural protein, E. coli, UniProt P0AC23 1-285, looked up)
chain: MKADNPFDLLLPAAMAKVAEEAGVYKATKHPLKTFYLAITAGVFISIAFVFYITATTGTGTMPFGMAKLVGGICFSLGLILCVVCGADLFTSTVLIVVAKASGRITWGQLAKNWLNVYFGNLVGALLFVLLMWLSGEYMTANGQWGLNVLQTADHKVHHTFIEAVCLGILANLMVCLAVWMSYSGRSLMDKAFIMVLPVAMFVASGFEHSIANMFMIPMGIVIRDFASPEFWTAVGSAPENFSHLTVMNFITDNLIPVTIGNIIGGGLLVGLTYWVIYLRENDHH
binding result [3]: binds
